# Measurements: patent publication US12006344 (Novo Nordisk, dated 2024)
# Residue numbers refer to the chain shown, from its start. Numbers in names are those of the source.
# T1: human MIC-1 receptor (hGFRAL, GDNF family receptor alpha like) (human, UniProt Q6UXV0 19-394)
# T1 sequence (looked up): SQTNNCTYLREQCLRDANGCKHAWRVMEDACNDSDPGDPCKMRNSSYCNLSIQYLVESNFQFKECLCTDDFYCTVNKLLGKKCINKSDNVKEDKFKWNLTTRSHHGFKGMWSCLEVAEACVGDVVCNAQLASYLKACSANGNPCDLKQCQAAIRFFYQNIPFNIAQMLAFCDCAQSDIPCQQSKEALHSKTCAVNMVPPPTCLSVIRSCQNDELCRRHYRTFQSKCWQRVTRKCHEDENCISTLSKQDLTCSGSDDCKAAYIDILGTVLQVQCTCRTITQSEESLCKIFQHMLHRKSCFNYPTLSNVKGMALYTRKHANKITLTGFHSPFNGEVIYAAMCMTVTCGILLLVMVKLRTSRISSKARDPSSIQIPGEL
# B1: SEPATSGSETPGTSESATPESGPG TSTEPSEG-MIC-1-Δ1-3 (ligand)
# chain: SEPATSGSETPGTSESATPESGPGTSTEPSEGGDHCPLGPGRCCRLHTVRASLEDLGWADWVLSPREVQVTMCIGACPSQFRAANMHAQIKTSLHRLKPDTVPAPCCVPASYNPMVLIQKTDTGVSLQTYDDLLAKDCHCI
# B2: SEPATSGSETPGTSESATPESGPGTSTEPS-MIC-1-Δ1-3 (ligand)
# chain: SEPATSGSETPGTSESATPESGPGTSTEPSGDHCPLGPGRCCRLHTVRASLEDLGWADWVLSPREVQVTMCIGACPSQFRAANMHAQIKTSLHRLKPDTVPAPCCVPASYNPMVLIQKTDTGVSLQTYDDLLAKDCHCI
# B3: (SEPATSGSETPG)2-MIC-1-Δ1-3(M86L) (ligand)
# chain: SEPATSGSETPGSEPATSGSETPGGDHCPLGPGRCCRLHTVRASLEDLGWADWVLSPREVQVTMCIGACPSQFRAANMHAQIKTSLHRLKPDTVPAPCCVPASYNPLVLIQKTDTGVSLQTYDDLLAKDCHCI
# B4: (SEPATSGSETPG)2-MIC-1-Δ1-3(M57L, M86L) (ligand)
# chain: B3 chain with M78L
# Molecular target: T1, human MIC-1 receptor (hGFRAL, GDNF …)
# Test: cell-based or functional assay
pERK EC50 (nM),pERK Emax (%),Molecule
0.4,100,B1
0.4,100,B2
0.4,100,B3
0.4,100,B4

# Molecular target: human MIC-1 receptor (hGFRAL, GDNF family receptor alpha like) (human) (UniProt Q6UXV0)
# Test: cell-based or functional assay
row,pERK EC50 (nM),Molecule
1,3.6,HSA-GGSSSGS (SEQ ID NO: 152)-MIC-1 (SEQ ID NO: 1) (from UniProt Q99988 197-308) (ligand)
